This note sets out measurements from publication PMC5372463, “Bacterial kinesin light chain (Bklc) links the Btub cytoskeleton to membranes” (Scientific Reports, 2017).

For this experiment, the target named is T1, BtubA/B heterodimer (bacterial tubulin) from Prosthecobacter dejongeii (Prosthecobacter dejongeii, UniProt Q8GCC5 1-473; Q8GCC1 1-426).
T1 construct: The same preparation stood as soluble (non-polymerized) heterodimer or, in polymerization buffer with GTP, as filaments; the assay tells which; Construct was a gift from JM; Andreu; also called Btubs; Btub filaments; source: E. coli C41 (DE3), co-expressed from a bicistronic construct, purified (polymerization/depolymerization cycle, SEC)
T1 sequence (looked up) 1: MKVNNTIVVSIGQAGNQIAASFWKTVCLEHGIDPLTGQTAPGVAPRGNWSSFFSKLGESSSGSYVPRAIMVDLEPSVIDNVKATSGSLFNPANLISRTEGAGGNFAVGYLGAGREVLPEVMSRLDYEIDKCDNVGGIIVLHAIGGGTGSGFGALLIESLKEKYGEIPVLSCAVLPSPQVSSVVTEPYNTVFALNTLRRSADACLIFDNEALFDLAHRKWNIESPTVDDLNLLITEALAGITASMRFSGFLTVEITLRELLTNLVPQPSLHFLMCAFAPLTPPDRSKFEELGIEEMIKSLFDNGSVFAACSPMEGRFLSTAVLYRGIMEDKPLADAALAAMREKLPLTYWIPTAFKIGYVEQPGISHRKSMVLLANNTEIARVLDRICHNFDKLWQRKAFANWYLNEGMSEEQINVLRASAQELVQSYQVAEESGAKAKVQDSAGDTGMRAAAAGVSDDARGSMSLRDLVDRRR
T1 sequence (looked up) 2: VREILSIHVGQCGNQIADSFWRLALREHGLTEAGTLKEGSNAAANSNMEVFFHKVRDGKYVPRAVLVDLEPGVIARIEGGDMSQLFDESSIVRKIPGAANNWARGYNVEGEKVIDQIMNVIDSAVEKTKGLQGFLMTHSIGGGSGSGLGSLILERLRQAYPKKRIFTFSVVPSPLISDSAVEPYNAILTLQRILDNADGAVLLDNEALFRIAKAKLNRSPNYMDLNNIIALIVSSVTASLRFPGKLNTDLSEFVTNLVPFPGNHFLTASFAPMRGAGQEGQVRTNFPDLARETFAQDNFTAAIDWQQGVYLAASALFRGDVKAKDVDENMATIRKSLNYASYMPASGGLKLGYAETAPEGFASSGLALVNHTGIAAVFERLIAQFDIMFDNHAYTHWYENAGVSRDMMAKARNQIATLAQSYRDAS
Kind of experiment: co-sedimentation; 10 μM BtubA/B with 10 or 20 μM Bklc in polymerization buffer (20 mM TrisHCl pH 7.5, 300 mM potassium glutamate, 5 mM MgCl2, 1 mM EGTA, 2 mM GTP), 10 min 25 °C, 100.000 x g 30 min; pellet depolymerized at 4 °C (S2); densitometry of Coomassie gels. The following applies: both partners purified.

B1: Bacterial kinesin light chain (Bklc) from Prosthecobacter vanneervenii, C-terminal poly-histidine tag (natural protein, UniProt A8Y5U5 1-256, looked up)
chain: MDTALERQIASASRSVEEARRLAYHDPIRVGALVEQISVLADLRQKEGDFRKAESLYREALFRAQELRKQDPDLLTGIYSLLAHLYDRWGRMDKAAEFYELALKISAENGLEESDKVATIKNNLAMIFKQLRKFERAEGYYCEALETFQRLDGEQSARVASVYNNLGVLYYSHMDVDRAQVMHERALAIRQNLHEGQMDPADLSQTFINLGAVYKAAGDFQKAEACVDRAKRIRAAMNGYHPNPRRSASLLIDKSL
notes: Bklc (bacterial kinesin light chain), Prosthecobacter vanneervenii; Uniprot id A8Y5U5_9BACT; GenBank CAP16140.1; the bklc gene was expressed from pHis17; Construct was a gift from M. Pilhofer; Monomer by SEC and AUC; also called Bklc-His; source: E. coli C41 (DE3), purified (Ni-NTA, SEC); not shown: His-tag, C-terminal, kept
As for B1, the “stoichiometry N” value was ~1 Bklc monomer per BtubA/B heterodimer.
